# Measurements as given in article PMC3386215 (Molecular Biology of the Cell, 2012).
# T1: His-Msb3 (S. cerevisiae, UniProt P48566 1-633)
# T1 sequence: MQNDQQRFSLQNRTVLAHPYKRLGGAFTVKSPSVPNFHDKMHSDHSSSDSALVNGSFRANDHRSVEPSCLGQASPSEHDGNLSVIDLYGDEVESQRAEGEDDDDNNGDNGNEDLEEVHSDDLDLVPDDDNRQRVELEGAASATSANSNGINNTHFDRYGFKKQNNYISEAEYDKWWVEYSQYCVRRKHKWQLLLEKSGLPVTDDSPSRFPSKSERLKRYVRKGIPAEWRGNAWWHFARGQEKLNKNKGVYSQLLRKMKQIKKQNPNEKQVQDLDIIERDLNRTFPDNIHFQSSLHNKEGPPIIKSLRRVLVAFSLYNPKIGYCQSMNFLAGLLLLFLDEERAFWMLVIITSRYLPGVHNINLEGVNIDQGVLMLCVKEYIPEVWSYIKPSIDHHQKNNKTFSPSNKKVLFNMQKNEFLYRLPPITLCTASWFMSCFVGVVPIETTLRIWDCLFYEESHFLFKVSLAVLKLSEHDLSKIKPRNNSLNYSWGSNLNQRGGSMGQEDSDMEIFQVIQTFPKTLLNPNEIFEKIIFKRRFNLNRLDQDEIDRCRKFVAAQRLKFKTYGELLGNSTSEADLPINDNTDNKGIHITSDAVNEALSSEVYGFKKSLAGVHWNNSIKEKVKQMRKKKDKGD
# Target: T1, His-Msb3
# Assay: pull-down
binder,measurement,value
GST-Vps21 (preloaded with GDP) (enzyme) MNTSVTSIKLVLLGEAAVGKSSIVLRFVSNDFAENKEPTIGAAFLTQRVTINEHTVKFEIWDTAGQERFASLAPMYYRNAQAALVVYDVTKPQSFIKARHWVKELHEQASKDIIIALVGNKIDMLQEGGERKVAREEGEKLAEEKGLLFFETSAKTGENVNDVFLGIGEKIPLKTAEEQNSASNERESNNQRVDLNAANDGTSANSACSC,binding result,binds
